Source: PMC10952495, “Glycosylation increases active site rigidity leading to improved enzyme stability and turnover” (The Febs Journal, 2023)

Substrate: Nc1ccccc1N
Assay: purified protein
Type: biochemical, Armoracia rusticana
Conditions: 25.0 °C
[1] = holo enzyme 0.5 nM, 3% v/v H2O2, 50 mM Tris pH 8.0, 298 K
[2] = holo enzyme 10 nM, 3% v/v H2O2, 20 mM Bis-Tris pH 7.0, 298 K

Row | Protein | Km [1] | kcat [1] | kcat/Km [1] | Km [2] | kcat [2] | kcat/Km [2]
1 | pHRP (plant horseradish peroxidase, glycosylated) (Armoracia rusticana) (protein, native from horseradish root, 8 N-linked glycans, clinical diagnostic grade (Ortho Clinical Diagnostics), with and without C-terminal serine, monomer) QLTPTFYDNSCPNVSNIVRDTIVNELRSDPRIAASILRLHFHDCFVNGCDASILLDNTTSFRTEKDAFGNANSARGFPVIDRMKAAVESACPRTVSCADLLTIAAQQSVTLAGGPSWRVPLGRRDSLQAFLDLANANLPAPFFTLPQLKDSFRNVGLNRSSDLVALSGGHTFGKNQCRFIMDRLYNFSNTGLPDPTLNTTYLQTLRGLCPLNGNLSALVDFDLRTPTIFDNKYYVNLEEQKGLIQSDQELFSSPNATDTIPLVRSFANSTQTFFNAFVEAMDRMGNITPLTGTQGQIRLNCRVVNSNS | 920 ± 100 µM | 917 ± 53 s⁻¹ | 1e+06 M⁻¹ s⁻¹ |  |  | 
2 | rHRP (recombinant horseradish peroxidase, nonglycosylated) (Armoracia rusticana) (protein) QLTPTFYDNSCPNVSNIVRDTIVNELRSDPRIAASILRLHFHDCFVNGCDASILLDNTTSFRTEKDAFGNANSARGFPVIDRMKAAVESACPRTVSCADLLTIAAQQSVTLAGGPSWRVPLGRRDSLQAFLDLANANLPAPFFTLPQLKDSFRNVGLNRSSDLVALSGGHTFGKNQCRFIMDRLYNFSNTGLPDPTLNTTYLQTLRGLCPLNGNLSALVDFDLRTPTIFDNKYYVNLEEQKGLIQSDQELFSSPNATDTIPLVRSFANSTQTFFNAFVEAMDRMGNITPLTGTQGQIRLNCRVVNSNS |  |  |  | 980 ± 130 µM | 86.2 ± 4.7 s⁻¹ | 88200 M⁻¹ s⁻¹
